14 molecules from patent publication US20160346402A1 (Bayer, published 2016) can be followed below.

Assay [1] has as its target T1, TPP-2305, hTNFRSF12 amino acids a28-80 (recombinant human TWEAKR protein) (human, UniProt Q9NP84 28-80).
T1 construct: Soluble monomeric antigen, injected as analyte over the captured antibodies; Bought protein
The experiment in a line: SPR (Biacore T100), antibody captured, TWEAKR TPP-2305 as analyte, 1:1 model. The protocol:
The antibodies were immobilized on a CM5 sensor chip using an indirect capture reagent, anti-human IgG(Fc). Reagents of the “Human Antibody Capture Kit” (BR-1008-39, GE Healthcare Biacore, Inc.) were used as described by the manufacturer.
Sensorgrams were generated after in-line reference cell correction, followed by subtraction of the buffer sample. The dissociation constant (KD) was calculated based on the ratio of association (kₒₙ) and dissociation (koff) constants, obtained by fitting sensorgrams using a 1:1 first order binding model.
Background: SPR reads the build-up and loss of mass on a sensor chip optically.

Assay [2] has as its target T2, hTNFRSF12 amino acids a28-80-S40R-hIgG1-Fc (human).
T2 construct: TWEAKR-Fc mutein, coated on the ELISA plate; also called TPP-1987
The experiment in a line: ELISA: TWEAKR-Fc construct coated at 62 ng/ml, biotinylated IgG titrated from 100 nM; token + marks IC50 of 1 to […] pM. As to the method:
(§1) To obtain dose-reaction data, the different TWEAKR-Fc muteins were coated at a low concentration (62 ng/ml) onto a 384-well Maxisorb ELISA plate, and a serial 2-fold dilution of biotinylated IgG beginning with a concentration of 100 nM was used as a soluble binding partner. Detection was carried out using streptavidin-HRP and Amplex Red.
(§2) IgGs were biotinylated using an about 2-fold molar excess of biotin-LC-NHS (Pierce; Cat. No. 21347) according to the instructions of the manufacturer and desalted using Zeba desalting columns (Pierce; Cat. No. 89889).
A general note: ELISA stands for enzyme-linked immunosorbent assay.

In assay [3] the target is T3, hTNFRSF12 amino acids a28-80-T33Q-hIgG1-Fc (human).
T3 construct: TWEAKR-Fc mutein, coated on the ELISA plate; also called TPP-1986
The assay is described as above. As to the method: as §1, §2

The target in assay [4] is T4, hTNFRSF12 amino acids a28-80-hIgG1-Fc (human).
T4 construct: wild-type TWEAKR-Fc (dimeric Fc fusion), coated on the ELISA plate; also called TPP-599; HUMAN-TNFRSF12Aaa28-80-hIgG1-Fc
The description is as above. As to the method: as §1, §2

The target of assay [5] is T5, hTNFRSF12 amino acids a28-80-M50A-hIgG1-Fc (human).
T5 construct: TWEAKR-Fc mutein, coated on the ELISA plate; also called TPP-1988
The description is as above. As to the method: as §1, §2

Assay [6] deals with T6, hTNFRSF12 amino acids a28-80-H60K-hIgG1-Fc (human).
T6 construct: TWEAKR-Fc mutein, coated on the ELISA plate; also called TPP-1989
Described as above. As to the method:
as §1, §2

Assay [7] concerns the target T7, hTNFRSF12 amino acids a28-80-L65Q-hIgG1-Fc (human).
T7 construct: TWEAKR-Fc mutein, coated on the ELISA plate
The assay is described as above. As to the method: as §1, §2

B1: TPP-883 (antibody, human IgG1, kappa, V domains shown)
VH: EVQLLESGGGLVQPGGSLRLSCAASGFTFSPYPMMWVRQAPGKGLEWVSYISPSGGKTHYADSVKGRFTISRDNSKNTLYLQMNSLRAEDTAVYYCARGGDGYFDYFDYWGQGTLVTVSS
VL: DIQMTQSPATLSASVGDRVTITCRASQSISSYLNWYQQKPGKAPKLLIYAASSLQSGVPSRFSGSGSGTDFTLTISSLQPEDFATYYCQQSYSSPGITFGPGTKVEIKR
notes: human IgG1
By Kd is commonly meant the concentration at which binding is half-saturated. As usually defined, the koff is the rate constant with which the complex falls apart. Broadly, the kon is a measure of how fast the partners come together. Regarding B1, in assay [1], the equilibrium dissociation constant (Kd) came out at 206 nM, the off-rate (koff) was determined as 0.91 s⁻¹ and the on-rate constant (kon) amounted to 4.4e+06 M⁻¹ s⁻¹.

B2: TPP-2148 (antibody, human IgG1, kappa, V domains shown)
VH: EVQLLESGGGLVQPGGSLRLSCAASGFTFSPYPMMWVRQAPGKGLEWVSYISPSGGKTHYADSVKGRFTISRDNSKNTLYLQMNSLRAEDTAVYYCARGGDTYFDYFDYWGQGTLVTVSS
VL: DIQMTQSPATLSASVGDRVTITCRASQSISSYLNWYQQKPGKAPKLLIYQASSLQSGVPSRFSGSGSGTDFTLTISSLQPEDFATYYCQQSYTSPFITFGPGTKVEIKR
notes: human IgG1
As to B2, in assay [1], the Kd was found to be 24.5 nM, the koff stood at 0.13 s⁻¹ and the on-rate constant (kon) came to 5.1e+06 M⁻¹ s⁻¹.

B3: TPP-1538 (antibody, human IgG1, kappa)
light: AQDIQMTQSPATLSASVGDRVTITCRASQSISSYLNWYQQKPGKAPKLLIYAASSLQSGVPSRFSGSGSGTDFTLTISSLQPEDFATYYCQQSYSSPGITFGPGTKVEIKRTVAAPSVFIFPPSDEQLKSGTASVVCLLNNFYPREAKVQWKVDNALQSGNSQESVTEQDSKDSTYSLSSTLTLSKADYEKHKLYACEVTHQGLSSPVTKSFNRGEC
heavy: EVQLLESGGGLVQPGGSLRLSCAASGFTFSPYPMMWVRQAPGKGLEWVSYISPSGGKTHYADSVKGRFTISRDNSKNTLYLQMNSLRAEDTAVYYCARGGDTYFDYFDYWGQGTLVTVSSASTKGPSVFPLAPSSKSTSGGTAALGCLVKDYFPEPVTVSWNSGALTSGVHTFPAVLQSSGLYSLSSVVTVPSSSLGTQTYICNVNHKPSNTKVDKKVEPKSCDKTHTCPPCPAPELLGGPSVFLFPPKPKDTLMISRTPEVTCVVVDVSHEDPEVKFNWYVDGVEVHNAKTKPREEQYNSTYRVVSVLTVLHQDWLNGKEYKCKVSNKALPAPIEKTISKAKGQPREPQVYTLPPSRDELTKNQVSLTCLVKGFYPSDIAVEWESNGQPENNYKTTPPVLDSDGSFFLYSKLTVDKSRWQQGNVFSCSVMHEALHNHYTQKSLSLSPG
notes: human IgG1
As to B3, in assay [1], the Kd stood at 27.6 nM, the koff was 0.11 s⁻¹ and the on-rate (kon) was determined as 4.2e+06 M⁻¹ s⁻¹.

B4: TPP-2149 (antibody, human IgG1, kappa, V domains shown)
VH: EVQLLESGGGLVQPGGSLRLSCAASGFTFSPYPMIWVRQAPGKGLEWVSYISPSGGKTHYADSVKGRFTISRDNSKNTLYLQMNSLRAEDTAVYYCARGGDTYFDYFDYWGQGTLVTVSS
VL: DIQMTQSPATLSASVGDRVTITCRASQSISGYLNWYQQKPGKAPKLLIYQASSLQSGVPSRFSGSGSGTDFTLTISSLQPEDFATYYCQQSYTSPFITFGPGTKVEIKR
notes: human IgG1
For the molecule B4, in assay [1], the equilibrium dissociation constant (Kd) was 12.1 nM, the koff is 0.1 s⁻¹ and the on-rate constant (kon) was determined as 8.4e+06 M⁻¹ s⁻¹.

B5: TPP-2077 (antibody, human IgG1, kappa)
light: DIQMTQSPATLSASVGDRVTITCRASQSISSYLNWYQQKPGKAPKLLIYAASSLQSGVPSRFSGSGSGTDFTLTISSLQPEDFATYYCQQSYSSPGITFGPGTKVEIKRTVAAPSVFIFPPSDEQLKSGTASVVCLLNNFYPREAKVQWKVDNALQSGNSQESVTEQDSKDSTYSLSSTLTLSKADYEKHKLYACEVTHQGLSSPVTKSFNRGEC
heavy: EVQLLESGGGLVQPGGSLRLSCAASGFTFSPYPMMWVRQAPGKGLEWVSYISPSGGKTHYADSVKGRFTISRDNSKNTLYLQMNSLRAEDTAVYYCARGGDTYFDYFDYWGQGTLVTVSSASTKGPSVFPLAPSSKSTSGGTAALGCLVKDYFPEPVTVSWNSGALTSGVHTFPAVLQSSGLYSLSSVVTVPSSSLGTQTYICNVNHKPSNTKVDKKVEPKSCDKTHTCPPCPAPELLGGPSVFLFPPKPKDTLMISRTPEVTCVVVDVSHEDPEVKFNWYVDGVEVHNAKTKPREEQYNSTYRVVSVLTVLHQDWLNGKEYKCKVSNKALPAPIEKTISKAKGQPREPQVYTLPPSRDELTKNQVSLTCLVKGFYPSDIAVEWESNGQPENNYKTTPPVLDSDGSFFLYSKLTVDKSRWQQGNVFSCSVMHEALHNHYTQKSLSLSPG
notes: human IgG1
Turning to B5, in assay [1], the Kd came out at 28.9 nM, the off-rate constant (koff) was determined as 0.086 s⁻¹ and the on-rate (kon) was found to be 3e+06 M⁻¹ s⁻¹.

B6: TPP-2084 (antibody, human IgG1, kappa, V domains shown)
VH: EVQLLESGGGLVQPGGSLRLSCAASGFTFSPYPMMWVRQAPGKGLEWVSYISPSGGSTHYADSVKGRFTISRDNSKNTLYLQMNSLRAEDTAVYYCARGGDTYFDYFDYWGQGTLVTVSS
VL: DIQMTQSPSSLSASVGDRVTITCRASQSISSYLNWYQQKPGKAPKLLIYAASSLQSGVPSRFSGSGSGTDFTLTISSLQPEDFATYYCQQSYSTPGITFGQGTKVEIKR
notes: human IgG1
Regarding B6, in assay [1], the dissociation constant Kd amounted to 27.6 nM, the off-rate constant (koff) is 0.11 s⁻¹ and the on-rate constant (kon) stood at 4.2e+06 M⁻¹ s⁻¹.

B7: TPP-2090 (antibody, human IgG1, kappa, V domains shown)
VH: EVQLLESGGGLVQPGGSLRLSCAASGFTFSPYPMIWVRQAPGKGLEWVSYISPSGGSTHYADSVKGRFTISRDNSKNTLYLQMNSLRAEDTAVYYCARGGDTYFDYFDYWGQGTLVTVSS
VL: DIQMTQSPSSLSASVGDRVTITCRASQSISGYLNWYQQKPGKAPKLLIYQASSLQSGVPSRFSGSGSGTDFTLTISSLQPEDFATYYCQQSYTSPFITFGQGTKVEIKR
notes: human IgG1; also called anti-TWEAKR AK-1
Consider B7, for which, in assay [1], the Kd is 12.4 nM, the koff was found to be 0.11 s⁻¹ and the kon turned out to be 9.1e+06 M⁻¹ s⁻¹.

B8: TPP-2093 (antibody, human IgG1, kappa, V domains shown)
VH: EVQLLESGGGLVQPGGSLRLSCAASGFTFSPYPMMWVRQAPGKGLEWVSYISPSGGSTHYADSVKGRFTISRDNSKNTLYLQMNSLRAEDTAVYYCARGGDTYFDYFDYWGQGTLVTVSS
VL: DIQMTQSPSSLSASVGDRVTITCRASQSISSYLNWYQQKPGKAPKLLIYQASSLQSGVPSRFSGSGSGTDFTLTISSLQPEDFATYYCQQSYTSPFITFGQGTKVEIKR
notes: human IgG1
For the molecule B8, in assay [1], the dissociation constant Kd worked out at 22.1 nM, the koff came out at 0.09 s⁻¹ and the on-rate (kon) came to 4.1e+06 M⁻¹ s⁻¹.

B9: P3G5(TPP-2195) (antibody, mouse IgG2a, kappa, V domains shown)
VH: QVQLQQSGPEVVRPGVSVKISCKGSGYTFTDYGIHWVKQSHAKSLEWIGVISTYNGYTNYNQKFKGKATMTVDKSSSTAYMELARLTSEDSAIYYCARAYYGNLYYAMDYWGQGTSVTVSS
VL: DIVLTQSPASLAVSLGQRATISCRANKSVSTSSYSYMHWYQQKPGQPPKLLIKYASNLESGVPARFSGSGSGTDFILNIHPVEEEDAATYYCQHSRELPFTFGSGTKLEIKR
notes: Comparative antibody, murine IgG2a; variable domains from WO2009/140177 with added constant regions
In the case of B9, in assay [1], the dissociation constant (Kd) was determined as 0.5 nM, the off-rate constant (koff) worked out at 0.00122 s⁻¹ and the kon worked out at 2.31e+06 M⁻¹ s⁻¹.

B10: P4A8(TPP-1324) (antibody, human IgG1, kappa, V domains shown)
VH: QVQLVQSGAEVKKPGASVKVSCKGSGYTFTDYGMHWVRQAPGQGLEWMGVISTYNGYTNYNQKFKGRVTMTVDKSTSTAYMELRSLRSDDTAVYYCARAYYGNLYYAMDYWGQGTLVTVSS
VL: DIVLTQSPASLAVSLGQRATISCRASKSVSTSSYSYMHWYQQKPGQPPKLLIKYASNLESGVPARFSGSGSGTDFSLNIHPMEEDDTAMYFCQHSRELPFTFGGGTKLEIKR
notes: Comparative antibody, human IgG1; variable domains from WO2009/140177 with added constant regions
B10: in assay [1], the Kd came to 2.3 nM, the koff was 0.0027 s⁻¹ and the on-rate (kon) amounted to 1.2e+06 M⁻¹ s⁻¹.

B11: 136.1(TPP-2194) (antibody, mouse IgG2a, kappa, V domains shown)
VH: EVKLEESGGGLVQPGGSMKLSCVASGFTFNNYWMSWVRQSPEKGLEWLAEIRLKSDNYATHYAESVKGKFTISRDDSKSRLYLQMNNLRAENTGIYYCTGGFADYFDYWGQGTTLTVSS
VL: DIVLTQSPASLTVSLGQRATISCRASQSVSTSSYSYMQWYQQRPGQPPKLLIKYATNLDSGVPARFSGSGSGTDFTLNIHPVEEEDAATYYCQHSWEIPYTFGGGTKLEIKR
notes: murine IgG2a; variable domains from WO2009/020933 with a murine IgG2 constant region added; biotinylated IgG in the ELISA
Take B11: the binding result in assay [2], in assay [3], in assay [4], in assay [5], in assay [6] and in assay [7] was “binds” in each case.

B12: 18.3.3(TPP-2193) (antibody, mouse IgG2a, kappa, V domains shown)
VH: EVKLGESGGGLVQPGGSMKLSCVASGFPFTKYWMNWVRQSPEKGLEWVAEIRLKSDNYATHYAESAKGRFTISRDDSRSSVYLQMNNLRAEDTAIYYCSPTYADTMDYWGQGTSVTVSS
VL: DIVLTQSPASLAVSLGQRATISCKASQSVSTSTYSYMQWYQQRPGQSPKLLIKYASKLDSGVPARFSGSGSGTDFTLNIHPVEEEDTATYYCQHSWELPYTFGGGTRLEIKR
notes: Comparative antibody, murine IgG2a; variable domains from WO2009/020933 with added constant regions
With B12, in assay [1], the dissociation constant Kd was found to be 1.7 nM, the koff was determined as 0.0285 s⁻¹ and the kon turned out to be 1.64e+07 M⁻¹ s⁻¹.

B13: 136.1(TPP-2194) (antibody, mouse IgG2a, kappa, V domains shown)
VH: EVKLEESGGGLVQPGGSMKLSCVASGFTFNNYWMSWVRQSPEKGLEWLAEIRLKSDNYATHYAESVKGKFTISRDDSKSRLYLQMNNLRAENTGIYYCTGGFADYFDYWGQGTTLTVSS
VL: DIVLTQSPASLTVSLGQRATISCRASQSVSTSSYSYMQWYQQRPGQPPKLLIKYATNLDSGVPARFSGSGSGTDFTLNIHPVEEEDAATYYCQHSWEIPYTFGGGTKLEIKR
notes: as for B12
Regarding B13, in assay [1], the equilibrium dissociation constant (Kd) is 0.8 nM, the off-rate (koff) stood at 0.0324 s⁻¹ and the association rate constant (kon) amounted to 3.84e+07 M⁻¹ s⁻¹.

B14: PDL-192(TPP-1104) (antibody, human IgG1, kappa, V domains shown)
VH: QVELVESGGGLVQPGGSLRLSCAASGFTFSSYWMSWVRQAPGKGLEWVAEIRLKSDNYATHYAESVKGRFTISRDDSKNSLYLQMNSLRAEDTAVYYCTGYYADAMDYWGQGTLVTVSS
VL: DIQMTQSPSSLSASVGDRVTITCRASQSVSTSSYSYMHWYQQKPGKAPKLLIKYASNLESGVPSRFSGSGSGTDFTLTISSLQPEDFATYYCQHSWEIPYTFGGGTKVEIKR
notes: human IgG1; variable domains from WO2009/020933 with a human IgG1 constant region added; biotinylated IgG in the ELISA
For the molecule B14, in assay [5], the binding result was “binds”.
